How the values were obtained:
PriA triple variant [1] = biological target: T1, PriA triple variant (Escherichia coli, UniProt P17888 1-732, W186A;R187A;Y190A); assay: EMSA; same as wild type; 5 mM EDTA; EMSA: 0.1-10 nM PriA, 1 nM fork, 50 mM Tris-HCl pH 8.0, 0.1 mg/mL BSA, 2 mM DTT, 5 mM EDTA, 6% glycerol, 30 min on ice, 4% PAGE; conditions: protein: recombinant; tags: His-tag; label: radiolabel; fork 1:2, 60 bp parental duplex, two 38-nt ssDNA arms
PriA Arg187Ala [2] = biological target: T2, PriA Arg187Ala (Escherichia coli, UniProt P17888 1-732, R187A); assay: as above; conditions: protein: recombinant; tags: His-tag; label: radiolabel; fork 1:2, 60 bp parental duplex, two 38-nt ssDNA arms
PriA Tyr190Ala [3] = biological target: T3, PriA Tyr190Ala (Escherichia coli, UniProt P17888 1-732, Y190A); assay: as above; conditions: protein: recombinant; tags: His-tag; label: radiolabel; fork 1:2, 60 bp parental duplex, two 38-nt ssDNA arms
PriA Trp186Ala [4] = biological target: T4, PriA Trp186Ala (Escherichia coli, UniProt P17888 1-732, W186A); assay: as above; conditions: protein: recombinant; tags: His-tag; label: radiolabel; fork 1:2, 60 bp parental duplex, two 38-nt ssDNA arms
PriA wild-type [5] = biological target: T5, PriA wild-type (Escherichia coli, UniProt P17888 1-732); assay: EMSA; three shifted bands; 5 mM EDTA; EMSA: 0.1-10 nM PriA, 1 nM fork, 50 mM Tris-HCl pH 8.0, 0.1 mg/mL BSA, 2 mM DTT, 5 mM EDTA, 6% glycerol, 30 min on ice, 4% PAGE; conditions: protein: recombinant; tags: N-terminal His6; label: radiolabel; fork 1:2, 60 bp parental duplex, two 38-nt ssDNA arms
PriA triple variant [6] = biological target: T1, PriA triple variant; assay: EMSA; similar to wild type; 5 mM EDTA; EMSA: 0.1-10 nM PriA, 1 nM fork, 50 mM Tris-HCl pH 8.0, 0.1 mg/mL BSA, 2 mM DTT, 5 mM EDTA, 6% glycerol, 30 min on ice, 4% PAGE; conditions: protein: recombinant; tags: His-tag; label: radiolabel; fork 1:2 (60 bp) 2:3 (33 bp nascent lagging) 1:4 (38 bp nascent leading), 5-nt lagging gap
PriA Arg187Ala [7] = biological target: T2, PriA Arg187Ala; assay: as above; conditions: protein: recombinant; tags: His-tag; label: radiolabel; fork 1:2 (60 bp) 2:3 (33 bp nascent lagging) 1:4 (38 bp nascent leading), 5-nt lagging gap
PriA Tyr190Ala [8] = biological target: T3, PriA Tyr190Ala; assay: as above; conditions: protein: recombinant; tags: His-tag; label: radiolabel; fork 1:2 (60 bp) 2:3 (33 bp nascent lagging) 1:4 (38 bp nascent leading), 5-nt lagging gap
PriA Trp186Ala [9] = biological target: T4, PriA Trp186Ala; assay: as above; conditions: protein: recombinant; tags: His-tag; label: radiolabel; fork 1:2 (60 bp) 2:3 (33 bp nascent lagging) 1:4 (38 bp nascent leading), 5-nt lagging gap
PriA wild-type [10] = biological target: T5, PriA wild-type; assay: EMSA; one dominant shifted species; 5 mM EDTA; EMSA: 0.1-10 nM PriA, 1 nM fork, 50 mM Tris-HCl pH 8.0, 0.1 mg/mL BSA, 2 mM DTT, 5 mM EDTA, 6% glycerol, 30 min on ice, 4% PAGE; conditions: protein: recombinant; tags: N-terminal His6; label: radiolabel; fork 1:2 (60 bp) 2:3 (33 bp nascent lagging) 1:4 (38 bp nascent leading), 5-nt lagging gap

Measured: binding result

B1: two-stranded fork (1b-98/3L-98) (mixed)
DNA 1: GCAAGCCTTCTACAGGTCGACCGTCCATGGCGACTCGAGACCGCAATACGGATAAGGGCTGAGCACGCCGACGAACATTCACCACGCCAGACCACGTA
DNA 2: GACTATCTACGTCCGAGGCTCGCGCCGCAGACTCATTTAGCCCTTATCCGTATTGCGGTCTCGAGTCGCCATGGACGGTCGACCTGTAGAAGGCTTGC
binds: PriA triple variant [1] | PriA Arg187Ala [2] | PriA Tyr190Ala [3] | PriA Trp186Ala [4] | PriA wild-type [5]

B2: four-stranded fork (1b-98/3L-98/b-33/11b-38) (mixed)
DNA 1: B1 DNA 1
DNA 2: B1 DNA 2
DNA 3: AGTCTGCGGCGCGAGCCTCGGACGTAGATAGTC
DNA 4: TACGTGGTCTGGCGTGGTGAATGTTCGTCGGCGTGCTC
binds: PriA triple variant [6] | PriA Arg187Ala [7] | PriA Tyr190Ala [8] | PriA Trp186Ala [9] | PriA wild-type [10]

Reference: publication PMC8323898, “Examination of the roles of a conserved motif in the PriA helicase in structure-specific DNA unwinding and processivity”
